Results reported in the supplement of paper PMC7125110.
± gives the standard error. This sample holds only a part of the variants without activity.

B1: glmS ribozyme (parent)
chain: AUAAAAGCGCCAGAACUACAGAAAUGUAGUUGACGAGGAGGAGGUUUAUCGAAUUUUCGGCGGAUGCCUCCAAA

How the values were obtained:
Details in all cases: with glucosamine-6-phosphate
glucosamine-6-phosphate [1] = variants of: B1; test: self-cleavage kobs at 40 uM GlcN6P; higher = faster cleavage; RNA array
Procedure, shortened: (§1)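 Tiles of sequenced MiSeq chips were imaged over ~14 h at 37 °C. On them, barcoded ribozyme variants had been transcribed in situ by E. coli RNA polymerase and were tracked via a hybridised Cy3 probe while glucosamine-6-phosphate (40 μM to 10 mM) in HEPES/KCl/Mg(OAc)2 buffer flowed in. Per-tile medians, normalised to baseline and to non-cleaving reference variants, were fit to one- or two-exponential decays for kobs, and weighted Michaelis–Menten fits gave kcat and KM.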

glucosamine-6-phosphate [2] = variants of: B1; test: self-cleavage kobs at 2500 uM GlcN6P; higher = faster cleavage; RNA array
Procedure, shortened: as §1

glucosamine-6-phosphate [3] = variants of: B1; test: self-cleavage kobs at 10000 uM GlcN6P; higher = faster cleavage; RNA array
Procedure, shortened: as §1

glucosamine-6-phosphate [4] = variants of: B1; test: self-cleavage kobs at 160 uM GlcN6P; higher = faster cleavage; RNA array
Procedure, shortened: as §1

glucosamine-6-phosphate [5] = variants of: B1; test: self-cleavage kobs at 640 uM GlcN6P; higher = faster cleavage; RNA array
Procedure, shortened: as §1

Row | Variant | self-cleavage kobs at 40 uM GlcN6P (glucosamine-6-phosphate [1]) | self-cleavage kobs at 2500 uM GlcN6P (glucosamine-6-phosphate [2]) | self-cleavage kobs at 10000 uM GlcN6P (glucosamine-6-phosphate [3]) | self-cleavage kobs at 160 uM GlcN6P (glucosamine-6-phosphate [4]) | self-cleavage kobs at 640 uM GlcN6P (glucosamine-6-phosphate [5])
1 | AUAAACGCGCCACAACUACAGAAAUGUAGUUGACGAGGAGGAGGUUUAUCGAAUUUUCGGCGGAUGCGUCCAAA [A6C G13C C68G] | < 1e-05 s⁻¹ | < 1e-05 s⁻¹ | – | – | –
2 | AUAAAGGCGCCUGAACUACAGAAAUGUAGUUGACGAGGAGGAGGUUUAUCGAAUUUUCGGCGGAUACCUCCAAA [A6G A12U G66A] | < 1e-05 s⁻¹ | 0.000132 ± 3.5e-05 s⁻¹ | 7.44e-05 ± 2.2e-05 s⁻¹ | – | –
3 | AUAAACGCGCCAGAACUACAGAAAUGUAGUUGACGAGGAGGAGGUUUAUCGAAUUUUCGGCAGAUCCCACCAAA [A6C G62A G66C U69A] | < 1e-05 s⁻¹ | – | < 1e-05 s⁻¹ | – | –
4 | AUAAACGCGCCAGAACUACAGAAAUGUAGUUCACGAGGAGGAGGUUUAUCGAAUUUUCGUCGGAUGCCUCCAAA [A6C G32C G60U] | < 1e-05 s⁻¹ | – | < 1e-05 s⁻¹ | – | –
5 | AUAAACGCGCCAGAACUACAGAAAUGUAGGUGACGAGGAGGAGGUUUAUCAAAUUUUCGGCGGAGGCCUCCAAA [A6C U30G G51A U65G] | < 1e-05 s⁻¹ | – | < 1e-05 s⁻¹ | – | –
6 | AUAAACGCGCCAGAACUACAGAAAUGUAGUCGACGAGGAGGAGGUUUAUCGAAUUUUCGGCGGAUGCCUCCAAA [A6C U31C] | < 1e-05 s⁻¹ | – | – | < 1e-05 s⁻¹ | –
7 | AUAAACGCGCCAGAACUACAGAAAUGUAGUUGACGAAGAGGAGGUUUAUCGAAUUUUCGGCGGAUGCCUCCAAA [A6C G37A] | < 1e-05 s⁻¹ | < 1e-05 s⁻¹ | < 1e-05 s⁻¹ | < 1e-05 s⁻¹ | –
8 | AUAAACGCGCCAGAACUACAGAAAUGUAGUCGACGAGGAGGAGGUUUAUCGAAUUUUCGGCGGAUGCGUCCAAA [A6C U31C C68G] | < 1e-05 s⁻¹ | – | – | – | –
9 | AUAAACGCGCCAGAACUACAGAAAUGUAGUUGACGAGGAGGAGGUAUAUCGAAUUUUCGGCGGAUGCCUCCAAA [A6C U46A] | < 1e-05 s⁻¹ | – | – | < 1e-05 s⁻¹ | < 1e-05 s⁻¹
10 | AUAAACGCGCCAGAACUACAGAAAUGUAGUUGACGAGGAGGAGGUGUAUCGAAUUUUCGGCGGAUGCCUCCAAA [A6C U46G] | < 1e-05 s⁻¹ | – | – | < 1e-05 s⁻¹ | –
11 | AUAAACGCGCCAGAACUACAGAAAUGUAGUUGACGAGGAGGAGGUUUAGCGAAUUUUCGGCGGAUGCCUCCAAA [A6C U49G] | < 1e-05 s⁻¹ | – | – | – | < 1e-05 s⁻¹
12 | AUAAAGGCGCCAGUACUACAGAAAUGUAGUUGACGAGGAGGAGGUUUAUCGAAUUUUCGGCGGAGGCCUCCAAA [A6G A14U U65G] | < 1e-05 s⁻¹ | – | – | – | –
13 | AUAAACGCGCCAGAACUACAGAAAUGUAGUUGACGAGGAGUAGGUUUAUCGAAUUUUCGGCGGAAGCCUCCAAA [A6C G41U U65A] | < 1e-05 s⁻¹ | – | – | – | –
14 | AUAAACGCGCCAGAACUACAGAAAUGUAGUUGACGAGGAGGAGGUUUAACUAAUUUUCGGCGGAUGCCUCCAAA [A6C U49A G51U] | < 1e-05 s⁻¹ | – | < 1e-05 s⁻¹ | – | –
15 | AUAAAGGCGCCAGACCUACAGAAAUGUAGUUGACAAGGAGGAGGUUUAUCGAAUUUUCGGCGGAUGCCUCCAAA [A6G A15C G35A] | < 1e-05 s⁻¹ | – | < 1e-05 s⁻¹ | – | –
16 | AUAAACGCGCCAGAACUACAGAAAUGUAGUUGACGAGGAGGAGGUUUAUCGAAUUUUCGGCUGAUGCCUCCAAA [A6C G62U] | < 1e-05 s⁻¹ | < 1e-05 s⁻¹ | < 1e-05 s⁻¹ | < 1e-05 s⁻¹ | –
17 | AUAAACGCGCCAGAACUACAGAAAUGUAGUUGACGAGGAGGAGGUUUAUCCAAUUUUCGGCGGAUGCCUCCAAA [A6C G51C] | < 1e-05 s⁻¹ | < 1e-05 s⁻¹ | < 1e-05 s⁻¹ | < 1e-05 s⁻¹ | < 1e-05 s⁻¹
18 | AUAAACGCGCCAGAACUACAGAAAUGUAGUGAACGAGGAGUAGGUUUAUCGAAUUUUCGGCGGAUGCCUCCAAA [A6C U31G G32A G41U] | < 1e-05 s⁻¹ | – | – | – | –

Row | Variant | self-cleavage kobs at 40 uM GlcN6P (glucosamine-6-phosphate [1]) | self-cleavage kobs at 2500 uM GlcN6P (glucosamine-6-phosphate [2]) | self-cleavage kobs at 10000 uM GlcN6P (glucosamine-6-phosphate [3]) | self-cleavage kobs at 160 uM GlcN6P (glucosamine-6-phosphate [4]) | self-cleavage kobs at 640 uM GlcN6P (glucosamine-6-phosphate [5])
19 | AUAAAGGCGCCAGAUCUACAGAAAUGUAGUUGAAGAGGAGGAGGUUUAUCGAAUUUUCGGCGGAUGCCUCCAAA [A6G A15U C34A] | < 1e-05 s⁻¹ | < 1e-05 s⁻¹ | < 1e-05 s⁻¹ | < 1e-05 s⁻¹ | < 1e-05 s⁻¹
20 | AUAAACGCGCCAGAACUACAGAAAUGUAGUCGACGAGGAGGAGGUUUAUCGAAUUUUCUGCGGAUGCCUCCAAA [A6C U31C G59U] | < 1e-05 s⁻¹ | – | – | – | –
21 | AUAAACGCGCCAGAACUACAGAAAUGUAGUUGACUGGGAGGAGGUUUAUCGAAUUUUCGGCGUAUGCCUCCAAA [A6C G35U A36G G63U] | < 1e-05 s⁻¹ | – | – | – | –
22 | AUAAACGCGCCAGAACUACAGAAAUGUAGGUGACGAGGAGGAGGUUUAUGGAAUUCUCGGCGGAUGCAUCCAAA [A6C U30G C50G U56C C68A] | 7.1e-05 ± 2.5e-05 s⁻¹ | – | 0.000356 ± 0.00016 s⁻¹ | – | –
23 | AUAAACGCGCCAGAACUACAGAAAUGUAGUUCACGAGGAGGAGGUUAAUCGAAUUUUCGGCGGAUGCCUCCAAA [A6C G32C U47A] | < 1e-05 s⁻¹ | < 1e-05 s⁻¹ | – | – | < 1e-05 s⁻¹
24 | AUAAACGCGCCAUAACUACAGAAAUGUAGUUGAGGAGGAGGAGGUUUAUCGAAUUUUCGCCGGAUGCCUCCAAA [A6C G13U C34G G60C] | < 1e-05 s⁻¹ | – | – | – | –
25 | AUAAACGCGCCAGAACUACAGAAAUGUAGUUCACGAGGAGGAGGUUUAUCGAAUUUUGGGCGGAUGCCUCCAAA [A6C G32C C58G] | < 1e-05 s⁻¹ | < 1e-05 s⁻¹ | – | – | < 1e-05 s⁻¹
26 | AUAAAGGCGCCCGAACUACAGAAAUGUAGUUGACAAGGAGUAGGUUUAUCGAAUUUUCGGCGGAUGCCUCAAAA [A6G A12C G35A G41U C71A] | < 1e-05 s⁻¹ | – | – | – | –
27 | AUAAACGCGCCAGAACUACAGAAAUGUAGUUGACGAGGAUGCGGAUUAUCGAAUUUUCCGGGGUUGCCUCCAAA [A6C G40U A42C U45A G59C C61G A64U] | < 1e-05 s⁻¹ | < 1e-05 s⁻¹ | – | – | –
28 | AUAAACGCGCCAGAACUACAGAAAUGUAGUUGACGAGGAAGAGGUUUAUCGAAUUUUCGGCGGAUGCCUCCAAA [A6C G40A] | < 1e-05 s⁻¹ | – | 2.46e-05 ± 9.8e-06 s⁻¹ | < 1e-05 s⁻¹ | –
29 | AUAAACGCGCCAGAACUACAGAAAUGUAGUUGACGAGGAGGAGGUUUAUCGAAUUUGCGGCGGAUGCCUCCAAA [A6C U57G] | < 1e-05 s⁻¹ | – | – | – | < 1e-05 s⁻¹
30 | AUAAACGCGCCAGAACUACAGAAAUGUAGUUAAUGAGGAGGAGGUUUAUCGAAGUUUUGGCGGAUACCUCCAAA [A6C G32A C34U U54G C58U G66A] | < 1e-05 s⁻¹ | – | < 1e-05 s⁻¹ | – | –
31 | AUAAACGCGCCAGAACUACAGAAAUGUAAUUGACGAGGAAGAGUUUUAUCGAAUUUUCGGCGGAUGCCUCCAAA [A6C G29A G40A G44U] | < 1e-05 s⁻¹ | – | < 1e-05 s⁻¹ | – | –
32 | AUAAAGGCGCCAGAGCUACAGAAAUGUAGUUGACGAGGAGGAGGUUUAUCGAAUUUUCGGCGGAUUCCUUCAAA [A6G A15G G66U C70U] | < 1e-05 s⁻¹ | – | – | – | –
33 | AUAAACGCGCCAGAACUACAGAAAUGUAGUUGACGAGGAGGAGUUUUAUCGAAUUUUCGGCGGAUGCGUCCAAA [A6C G44U C68G] | < 1e-05 s⁻¹ | – | < 1e-05 s⁻¹ | – | < 1e-05 s⁻¹
34 | AUAAAGGCGCCAGUACUACAGAAAUGUAGUUGACGAGGACGAGGUUUAUCGAAUUUUCGGCGGAUGGCUCCAAA [A6G A14U G40C C67G] | < 1e-05 s⁻¹ | – | – | – | < 1e-05 s⁻¹
35 | AUAAAGGCGCCAGACCUACAGAAAUGUAGUCGACGAGGAGGCGGUUUAUCGAAUUUUCGGCGGAUGCCUCCAAA [A6G A15C U31C A42C] | < 1e-05 s⁻¹ | – | < 1e-05 s⁻¹ | – | –
